In US20220242958A1, “BISPECIFIC NANOBODIES” (Ablynx N.V., priority 2013, published 2022):
Each block holds one molecule with its values, some of them ahead of it.

Legend:
[1] = target: T1, human IL12Rβ1 extracellular domain Fc-fusion (Homo sapiens, UniProt P42701); assay: SPR (Biacore T100) on IL12Rβ1-Fc; assay type: binding
T1 construct: Fc-fusions of human IL12Rβ1, IL12Rβ2 and IL-23R extracellular domains; purchased R&D Systems #839-B1
Experimental: (§1) The precise binding affinities of the purified Nanobodies were determined in a multi-cycle kinetic analysis using Surface Plasmon Resonance analysis (Biacore T100) on Fc-fusions of human IL12Rβ1, IL12Rβ2 and IL-23R extracellular domains (R&D Systems, #839-B1, #1959-B2, #1400-IR). Sensorchips CM5 were immobilized with anti-hIgG antibody (GE Healthcare, BR-1008-39), after which receptors were captured at 5 μg/ml protein and contact time of 120 seconds. Running buffer used was HBS-EP+ (GE Healthcare, BR-1006-69) at 25° C., with a flow-rate of […]. For immobilization by amine coupling, EDC/NHS was used for activation and ethanolamine HCl for deactivation (Biacore, amine coupling kit). Nanobodies were evaluated at a concentration range between 1.37 nM and 3 μM. Nanobodies were allowed to associate for 2 min and to dissociate for 15 min at a flow rate of […]. In between injections, the surfaces were regenerated with a 3 min pulse of 3M MgCl2 and 2 min stabilization period. Evaluation of the association/dissociation data was performed by fitting a 1:1 interaction model (Langmuir binding model) by Biacore TWO software v2.0.3.

activated human T cells = assay: Flow cytometry binding to activated human T cells (TH1); conditions: IL12Rb1 and IL12Rb2 Nanobodies on TH1 activated T cells
Experimental: Dose-dependent binding of monovalent Nanobodies to their cell-expressed receptor in the context of the heterodimeric complex was determined by flow cytometry on activated human T cells from distinct healthy donors.
Human T cells were isolated using the Human T Cell Enrichment Cocktail (RosetteSep #15061) and pre-activated for four days with Dynabeads® Human T-Activator CD3/CD28 (Gibco—Life Technologies #11131D) and one day with recombinant human IL-2 (Life Technologies—Gibco #PHC0027) to induce TH1 differentiation. Routinely, T cell markers surface expression and activation state was checked by FACS using anti-CD3 PE (eBioscience #12-0037-73), anti-CD8-PE (BD Bioscience #555367), anti-CD45RO-PE (BD Bioscience #555493), anti-CD45RA-APC (BD Bioscience #550855) anti-CD25-PE (BD Bioscience #557138) and anti-CD69-PE (BD Bioscience #557050). IL12R surface expression was confirmed by FACS using IL12Rβ1 antibody (R&D MAB839), followed by goat anti-mouse PE (Jackson Immuno Research 115-115-164). The expression of IL23R was checked by polyclonal goat anti-IL-23R (R&D AF1400). CD4 surface expression was confirmed by FACS using APC-labelled anti-CD4 (BD Bioscience #345771). […]
Dose-dependent binding of monovalent Nanobodies was assessed by flow cytometry on the respective Th1 or Th17 enriched T cell populations. […] The cells were then analysed via a BD FACSArray.

[2] = test system: IL-12 dependent IFN-γ release, human T cells; assay: IL-12 mediated IFN-γ release in activated human T cells; assay type: cell-based; conditions: 0.2 pM IL-12; 72 h; donor D839
Experimental: The ability of bispecific polypeptides to simultaneously engage both targets on the same cell was analysed in a IL-12 dependent functional assay, inhibition of IL-12 mediated IFN-γ release in activated human T cells. Since the functional blockade is only mediated via IL12R, avidity by the simultaneous binding of the CD4 Nanobody is expected to translate into increased potency of the bispecific in inhibition of cytokine release.
Isolated human T cells from buffycoats were activated for four days with Dynabeads® Human T-Activator CD3/CD28 (Gibco—Life Technologies #11131D) and one day with IL-2. To differentiate into Th1 subtype, T cells were cultured in presence of IL-12 with co-stimulation provided by plate coated CD3 at 0.5 μg/ml (eBioscience #16-0037-85) and anti-CD28 (1 μg/ml PeliCluster, Sanquin #M1650) in solution.
Dose-dependent blockade of IL-12 mediated IFNγ release was assessed for the bispecific IL-12Rβ2-CD4 and IL-12Rβ1-CD4 polypeptides in both orientations, and the corresponding monovalent Nanobodies. The IL-23R-CD4 bispecific polypeptides served as negative controls. Representative graphs of the bispecific IL12Rβ1-CD4, IL12Rβ2-CD4 and IL23R-CD4 polypeptides are shown in FIG. 3.9, and IC50 values in Table 3.2. […] Although bispecific constructs in both orientations show potency enhancements, the IL12Rβ2 Nanobody in the N-terminal position from CD4 gave stronger enhancements.

[3] = test system: IL-23 dependent IL-17 release, human PBMCs; assay: IL-23 dependent IL-17 release in human PBMCs; assay type: cell-based; conditions: 9 days; donor D840
Experimental: In this assay set-up human PBMCs were cultured in the presence of soluble IL23 to allow differentiation of T cells towards the Th17 phenotype. Cells were seeded onto OKT-3 (eBioscience #16-0037-85) coated plates in the presence of recombinant human IL-23 (eBioscience #14-8239) and PeliCluster CD28 (Sanquin #M1650) in solution. Cytokine (IL17) release in the presence or absence of the respectively Nanobodies was determined by ELISA after an incubation period of 9 days.
Dose-dependent inhibition of the panel of bispecific IL23R-CD4 and IL12Rβ1-CD4 polypeptides was assessed in comparison to the respective monovalent Nanobodies, with in this case the IL12Rβ1-CD4 specific polypeptides serving as negative controls. […] There is a preference for the IL12Rβ1 building block in the C-terminal position from CD4 in this assay. There is a clear difference in potency between the two IL12Rβ1 family members, corresponding to the different binding kinetics and affinities, and this difference is preserved in the potency of the bispecific constructs.

[4] = target: T2, IL23R on Th17 differentiated T cells (Homo sapiens, UniProt Q5VWK5); assay: Flow cytometry binding to T cells differentiated towards Th17 phenotype; conditions: IL23R Nanobodies on Th17 differentiated cells
T2 construct: endogenous in cells; host or cells: T cells within human PBMCs differentiated towards Th17
T2 sequence (Q5VWK5 24-629): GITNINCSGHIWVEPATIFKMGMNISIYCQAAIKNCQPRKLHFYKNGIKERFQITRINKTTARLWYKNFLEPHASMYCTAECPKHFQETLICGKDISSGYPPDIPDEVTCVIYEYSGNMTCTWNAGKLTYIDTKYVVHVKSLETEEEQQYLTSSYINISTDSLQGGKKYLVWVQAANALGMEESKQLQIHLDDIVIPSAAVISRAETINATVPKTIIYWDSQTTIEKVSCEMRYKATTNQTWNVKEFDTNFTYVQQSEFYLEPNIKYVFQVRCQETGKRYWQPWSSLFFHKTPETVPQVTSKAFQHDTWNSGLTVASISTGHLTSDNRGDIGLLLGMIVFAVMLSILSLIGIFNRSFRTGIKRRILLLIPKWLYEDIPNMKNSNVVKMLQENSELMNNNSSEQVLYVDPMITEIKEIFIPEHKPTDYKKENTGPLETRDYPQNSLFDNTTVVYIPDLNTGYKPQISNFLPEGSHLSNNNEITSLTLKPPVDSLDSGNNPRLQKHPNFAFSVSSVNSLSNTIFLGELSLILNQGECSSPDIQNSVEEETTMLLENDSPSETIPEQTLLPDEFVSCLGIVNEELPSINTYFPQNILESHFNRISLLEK
Experimental: As the expression of IL23R was very low in the T cell pool, the binding of monovalent IL23R Nanobodies was assessed on cells that were differentiated towards the Th17 phenotype by the incubation of PBMCs in the presence of a cytokine cocktail and IL-23, recombinant IL-6 (eBioscience #34-8069-82), recombinant TGF-b1 (R&D #240-B), anti-human IL-4 antibody(BD#554481), recombinant IL-1b (BD#554602)) and recombinant Human IL-23 (R&D Systems #219-IL-005) with co-stimulation of plate coated OKT-3 (eBioscience #16-0037-85), PeliCluster CD28 (Sanquin #M1650). Following this procedure, low but detectable IL23R expression levels were obtained. Optimization in the Th17 differentiation protocol could further increase these expression levels.
Dose-dependent binding of monovalent Nanobodies was assessed by flow cytometry on the respective Th1 or Th17 enriched T cell populations. Serial dilutions of antibody or Nanobodies were allowed to associate for 30 minutes at 4° C. in FACS buffer (PBS supplemented with 10% FBS and 0.05% azide). Cells were washed by centrifugation and probed with anti-FLAG antibodies (Sigma F1804) for 30 minutes at 4° C., to detect bound Nanobody. Detection was done with Goat anti-Mouse IgG-PE (Jackson ImmunoResearch #115-116-071) for 30 minutes at 4° C. […] The cells were then analysed via a BD FACSArray.

[5] = target: T3, human IL-23R extracellular domain Fc-fusion (Homo sapiens, UniProt Q5VWK5); assay: SPR (Biacore T100) on IL-23R-Fc; assay type: binding
T3 construct: Fc-fusions of human IL12Rβ1, IL12Rβ2 and IL-23R extracellular domains; purchased R&D Systems #1400-IR
T3 sequence (Q5VWK5 24-355 limits assumed): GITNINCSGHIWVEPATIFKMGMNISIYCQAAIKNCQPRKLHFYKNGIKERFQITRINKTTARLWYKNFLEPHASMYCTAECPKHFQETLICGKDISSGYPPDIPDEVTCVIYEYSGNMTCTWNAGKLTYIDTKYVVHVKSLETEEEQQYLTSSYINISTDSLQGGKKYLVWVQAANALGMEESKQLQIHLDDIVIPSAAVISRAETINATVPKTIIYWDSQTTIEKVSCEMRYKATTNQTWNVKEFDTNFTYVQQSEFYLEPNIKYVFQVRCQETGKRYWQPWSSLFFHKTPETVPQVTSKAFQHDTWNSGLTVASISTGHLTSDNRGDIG
Experimental: as §1

Binding kinetics (SPR) ka (1/Ms), IL12Rβ1 [1]: 720000 M⁻¹ s⁻¹ | Binding kinetics (SPR) kd (1/s), IL12Rβ1 [1]: 0.017 s⁻¹ | Binding T cells (FACS) EC50 (M) (activated human T cells): No fit | IFNγ release T cells D839 IC50 (M) [2]: no fit
B1: IL12Rb1#31: IL-12Rβ1 specific ligand competing Nanobody (protein)
VHH: EVQLVESGGGLVQTGGSLRLSCAASGRTPSIIAMGWFRQTPGKEREFVGEIILSKGFTYYADSVKGRFTISRANAKNTITMYLQMNSLKSEDTAVYYCAARQNWSGNPTRTNEYEYWGQGTLVTVSS

Binding T cells (FACS) EC50 (M) [4]: No fit | Binding kinetics (SPR) ka (1/Ms), IL-23R [5]: 3e+06 M⁻¹ s⁻¹ | Binding kinetics (SPR) kd (1/s), IL-23R [5]: 0.23 s⁻¹
B2: IL23R#20: IL-23R specific ligand competing Nanobody (protein)
VHH: EVQLVESGGGLVQAGGSLRLSCAASGRTFSSYAMGWFRQAPGKDREFVAAISWIGESTYYADSVKGRFTISRDNAKNTVYLRMNSLKPEDTAVYYCAADLYYTAYVAAADEYDYWGQGTLVTVSS
IL-17 release PBMC D840 IC50 (M) [3]: no fit
